Test results taken from paper PMC10954480.

Biological target: 6x His-tagged RecB nuclease domain (RecB^928–1180) (Escherichia coli) (UniProt P08394)
Test: pull-down

Chain of 6x His-tagged RecB nuclease domain (RecB^928–1180) (Escherichia coli) (P08394 928-1180): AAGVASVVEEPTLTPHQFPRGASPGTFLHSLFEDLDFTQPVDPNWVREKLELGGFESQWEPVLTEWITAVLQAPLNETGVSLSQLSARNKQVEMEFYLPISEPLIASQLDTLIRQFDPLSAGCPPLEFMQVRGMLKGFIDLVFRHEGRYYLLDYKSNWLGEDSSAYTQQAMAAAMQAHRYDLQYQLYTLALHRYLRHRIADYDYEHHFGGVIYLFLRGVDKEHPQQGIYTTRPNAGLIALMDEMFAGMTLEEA

RecB^1–927CD, truncated RecBCD enzyme lacking the RecB nuclease domain, P08394 1-927; P07648 1-1122; P04993 1-608
stoichiometry N (moles RecB^hCD per mole RecB^n): 0.95
